Here are results for eight molecules from paper PMC7367873, “Dissecting the sequence determinants for dephosphorylation by the catalytic subunits of phosphatases PP1 and PP2A” (Nature Communications, 2020).

For one experiment, the system named is GFP-14-3-3β. In words: GFP-14-3-3β co-IP with LC-MS/MS, untreated GFP-14-3-3β versus GFP control (14-3-3 interactome). The class given is binding, human. The note with it: pairwise comparison untreated vs GFP.
Experiment [1] concerns GFP-14-3-3β and its binding proteins. The experiment can be described thus: GFP-14-3-3β co-IP with LC-MS/MS label-free quantification, untreated versus PP1c-treated. More on the design: species or system human. The note with it: pairwise comparison PP1 vs untreated.
Setting [2] is: log2 difference, label-free quantification, 3 replicates each.

B1: EEF1A1P5;EEF1A1 (protein, UniProt P68104 2-462, looked up)
Elongation factor 1-alpha 1: GKEKTHINIVVIGHVDSGKSTTTGHLIYKCGGIDKRTIEKFEKEAAEMGKGSFKYAWVLDKLKAERERGITIDISLWKFETSKYYVTIIDAPGHRDFIKNMITGTSQADCAVLIVAAGVGEFEAGISKNGQTREHALLAYTLGVKQLIVGVNKMDSTEPPYSQKRYEEIVKEVSTYIKKIGYNPDTVAFVPISGWNGDNMLEPSANMPWFKGWKVTRKDGNASGTTLLEALDCILPPTRPTDKPLRLPLQDVYKIGGIGTVPVGRVETGVLKPGMVVTFAPVNVTTEVKSVEMHHEALSEALPGDNVGFNVKNVSVKDVRRGNVAGDSKNDPPMEAAGFTAQVIILNHPGQISAGYAPVLDCHTAHIACKFAELKEKIDRRSGKKLEDGPKFLKSGDAAIVDMVPGKPMCVESFSDYPPLGRFAVRDMRQTVAVGVIKAVDKKAAGAGKVTKSAQKAQKAK
For the molecule B1, in the experiment with GFP-14-3-3β, the “Difference (log2), untreated vs GFP” value is on record as -0.241 log2. Further, the “Difference (log2), PP1 vs untreated” value in experiment [1] worked out at 0.02225 log2.

B2: LYPD3 (protein, UniProt O95274 31-326, looked up)
Ly6/PLAUR domain-containing …: LECYSCVQKADDGCSPNKMKTVKCAPGVDVCTEAVGAVETIHGQFSLAVRGCGSGLPGKNDRGLDLHGLLAFIQLQQCAQDRCNAKLNLTSRALDPAGNESAYPPNGVECYSCVGLSREACQGTSPPVVSCYNASDHVYKGCFDGNVTLTAANVTVSLPVRGCVQDEFCTRDGVTGPGFTLSGSCCQGSRCNSDLRNKTYFSPRIPPLVRLPPPEPTTVASTTSVTTSTSAPVRPTSTTKPMPAPTSQTPRQGVEHEASRDEEPRLTGGAAGHQDRSNSGQYPAKGGPQQPHNKGC
As to B2, the “Difference (log2), untreated vs GFP” value in the experiment on GFP-14-3-3β is -0.7562 log2. For the same molecule, in experiment [1], the “Difference (log2), PP1 vs untreated” value is on record as 0.03143 log2.

B3: DDX17 (protein, UniProt Q92841 1-729, looked up)
Probable ATP-dependent RNA …: MPTGFVAPILCVLLPSPTREAATVASATGDSASERESAAPAAAPTAEAPPPSVVTRPEPQALPSPAIRAPLPDLYPFGTMRGGGFGDRDRDRDRGGFGARGGGGLPPKKFGNPGERLRKKKWDLSELPKFEKNFYVEHPEVARLTPYEVDELRRKKEITVRGGDVCPKPVFAFHHANFPQYVMDVLMDQHFTEPTPIQCQGFPLALSGRDMVGIAQTGSGKTLAYLLPAIVHINHQPYLERGDGPICLVLAPTRELAQQVQQVADDYGKCSRLKSTCIYGGAPKGPQIRDLERGVEICIATPGRLIDFLESGKTNLRRCTYLVLDEADRMLDMGFEPQIRKIVDQIRPDRQTLMWSATWPKEVRQLAEDFLRDYTQINVGNLELSANHNILQIVDVCMESEKDHKLIQLMEEIMAEKENKTIIFVETKRRCDDLTRRMRRDGWPAMCIHGDKSQPERDWVLNEFRSGKAPILIATDVASRGLDVEDVKFVINYDYPNSSEDYVHRIGRTARSTNKGTAYTFFTPGNLKQARELIKVLEEANQAINPKLMQLVDHRGGGGGGGGRSRYRTTSSANNPNLMYQDECDRRLRGVKDGGRRDSASYRDRSETDRAGYANGSGYGSPNSAFGAQAGQYTYGQGTYGAAAYGTSSYTAQEYGAGTYGASSTTSTGRSSQSSSQQFSGIGRSGQQPQPLMSQQFAQPPGATNMIGYMGQTAYQYPPPPPPPPPSRK
On to B3, for which, in the experiment with GFP-14-3-3β, the “Difference (log2), untreated vs GFP” value came out at 0.6933 log2. Besides, the “Difference (log2), PP1 vs untreated” value in experiment [1] came to 0.07996 log2.

B4: NAP1L1 (protein, UniProt P55209 2-388, looked up)
Nucleosome assembly protein …: ADIDNKEQSELDQDLDDVEEVEEEETGEETKLKARQLTVQMMQNPQILAALQERLDGLVETPTGYIESLPRVVKRRVNALKNLQVKCAQIEAKFYEEVHDLERKYAVLYQPLFDKRFEIINAIYEPTEEECEWKPDEEDEISEELKEKAKIEDEKKDEEKEDPKGIPEFWLTVFKNVDLLSDMVQEHDEPILKHLKDIKVKFSDAGQPMSFVLEFHFEPNEYFTNEVLTKTYRMRSEPDDSDPFSFDGPEIMGCTGCQIDWKKGKNVTLKTIKKKQKHKGRGTVRTVTKTVSNDSFFNFFAPPEVPESGDLDDDAEAILAADFEIGHFLRERIIPRSVLYFTGEAIEDDDDDYDEEGEEADEEGEEEGDEENDPDYDPKKDQNPAEC
Regarding B4, in the experiment with GFP-14-3-3β (setting [2]), the “Difference (log2), untreated vs GFP” value was -0.3295. Further, the “Difference (log2), PP1 vs untreated” value in experiment [1] (setting [2]) came to 1.883.

B5: HDLBP (protein, UniProt Q00341 2-1268, looked up)
Vigilin: SSVAVLTQESFAEHRSGLVPQQIKVATLNSEEESDPPTYKDAFPPLPEKAACLESAQEPAGAWGNKIRPIKASVITQVFHVPLEERKYKDMNQFGEGEQAKICLEIMQRTGAHLELSLAKDQGLSIMVSGKLDAVMKARKDIVARLQTQASATVAIPKEHHRFVIGKNGEKLQDLELKTATKIQIPRPDDPSNQIKITGTKEGIEKARHEVLLISAEQDKRAVERLEVEKAFHPFIAGPYNRLVGEIMQETGTRINIPPPSVNRTEIVFTGEKEQLAQAVARIKKIYEEKKKKTTTIAVEVKKSQHKYVIGPKGNSLQEILERTGVSVEIPPSDSISETVILRGEPEKLGQALTEVYAKANSFTVSSVAAPSWLHRFIIGKKGQNLAKITQQMPKVHIEFTEGEDKITLEGPTEDVNVAQEQIEGMVKDLINRMDYVEINIDHKFHRHLIGKSGANINRIKDQYKVSVRIPPDSEKSNLIRIEGDPQGVQQAKRELLELASRMENERTKDLIIEQRFHRTIIGQKGERIREIRDKFPEVIINFPDPAQKSDIVQLRGPKNEVEKCTKYMQKMVADLVENSYSISVPIFKQFHKNIIGKGGANIKKIREESNTKIDLPAENSNSETIIITGKRANCEAARSRILSIQKDLANIAEVEVSIPAKLHNSLIGTKGRLIRSIMEECGGVHIHFPVEGSGSDTVVIRGPSSDVEKAKKQLLHLAEEKQTKSFTVDIRAKPEYHKFLIGKGGGKIRKVRDSTGARVIFPAAEDKDQDLITIIGKEDAVREAQKELEALIQNLDNVVEDSMLVDPKHHRHFVIRRGQVLREIAEEYGGVMVSFPRSGTQSDKVTLKGAKDCVEAAKKRIQEIIEDLEAQVTLECAIPQKFHRSVMGPKGSRIQQITRDFSVQIKFPDREENAVHSTEPVVQENGDEAGEGREAKDCDPGSPRRCDIIIISGRKEKCEAAKEALEALVPVTIEVEVPFDLHRYVIGQKGSGIRKMMDEFEVNIHVPAPELQSDIIAITGLAANLDRAKAGLLERVKELQAEQEDRALRSFKLSVTVDPKYHPKIIGRKGAVITQIRLEHDVNIQFPDKDDGNQPQDQITITGYEKNTEAARDAILRIVGELEQMVSEDVPLDHRVHARIIGARGKAIRKIMDEFKVDIRFPQSGAPDPNCVTVTGLPENVEEAIDHILNLEEEYLADVVDSEALQVYMKPPAHEEAKAPSRGFVVRDAPWTASSSEKAPDMSSSEEFPSFGAQVAPKTLPWGPKR
As to B5, the “Difference (log2), untreated vs GFP” value in the experiment on GFP-14-3-3β stood at 0.159 log2. In experiment [1], the “Difference (log2), PP1 vs untreated” value is 0.06756 log2.

B6: SLC3A2 (protein, UniProt P08195 1-630, looked up)
Amino acid transporter heavy …: MELQPPEASIAVVSIPRQLPGSHSEAGVQGLSAGDDSELGSHCVAQTGLELLASGDPLPSASQNAEMIETGSDCVTQAGLQLLASSDPPALASKNAEVTGTMSQDTEVDMKEVELNELEPEKQPMNAASGAAMSLAGAEKNGLVKIKVAEDEAEAAAAAKFTGLSKEELLKVAGSPGWVRTRWALLLLFWLGWLGMLAGAVVIIVRAPRCRELPAQKWWHTGALYRIGDLQAFQGHGAGNLAGLKGRLDYLSSLKVKGLVLGPIHKNQKDDVAQTDLLQIDPNFGSKEDFDSLLQSAKKKSIRVILDLTPNYRGENSWFSTQVDTVATKVKDALEFWLQAGVDGFQVRDIENLKDASSFLAEWQNITKGFSEDRLLIAGTNSSDLQQILSLLESNKDLLLTSSYLSDSGSTGEHTKSLVTQYLNATGNRWCSWSLSQARLLTSFLPAQLLRLYQLMLFTLPGTPVFSYGDEIGLDAAALPGQPMEAPVMLWDESSFPDIPGAVSANMTVKGQSEDPGSLLSLFRRLSDQRSKERSLLHGDFHAFSAGPGLFSYIRHWDQNERFLVVLNFGDVGLSAGLQASDLPASASLPAKADLLLSTQPGREEGSPLELERLKLEPHEGLLLRFPYAA
In the case of B6, the “Difference (log2), untreated vs GFP” value in the experiment on GFP-14-3-3β is on record as 0.2155 log2. Further, in experiment [1], the “Difference (log2), PP1 vs untreated” value came to 0.07419 log2.

B7: TSR1 (protein, UniProt Q2NL82 1-804, looked up)
Pre-rRNA-processing protein …: MAAHRPGPLKQQNKAHKGGRHRGRGSAQRDGKGRLALKTLSKKVRKELSRVDQRHRASQLRKQKKEAVLAEKRQLGGKDGPPHQVLVVPLHSRISLPEAMQLLQDRDTGTVHLNELGNTQNFMLLCPRLKHRWFFTSARPGDLHVVLDMAKVADTILFLLDPLEGWDSTGDYCLSCLFAQGLPTYTLAVQGISGLPLKKQIDTRKKLSKAVEKRFPHDKLLLLDTQQEAGMLLRQLANQKQQHLAFRDRRAYLFAHAVDFVPSEENNLVGTLKISGYVRGQTLNVNRLLHIVGYGDFQMKQIDAPGDPFPLNPRGIKPQKDPDMAMEICATDAVDDMEEGLKVLMKADPGRQESLQAEVIPDPMEGEQTWPTEEELSEAKDFLKESSKVVKKVPKGTSSYQAEWILDGGSQSGGEGDEYEYDDMEHEDFMEEESQDESSEEEEEYETMTIGESVHDDLYDKKVDEEAEAKMLEKYKQERLEEMFPDEVDTPRDVAARIRFQKYRGLKSFRTSPWDPKENLPQDYARIFQFQNFTNTRKSIFKEVEEKEVEGAEVGWYVTLHVSEVPVSVVECFRQGTPLIAFSLLPHEQKMSVLNMVVRRDPGNTEPVKAKEELIFHCGFRRFRASPLFSQHTAADKHKLQRFLTADMALVATVYAPITFPPASVLLFKQKSNGMHSLIATGHLMSVDPDRMVIKRVVLSGHPFKIFTKMAVVRYMFFNREDVLWFKPVELRTKWGRRGHIKEPLGTHGHMKCSFDGKLKSQDTVLMNLYKRVFPKWTYDPYVPEPVPWLKSEISSTVPQGGME
As to B7, the “Difference (log2), untreated vs GFP” value with GFP-14-3-3β was 1.267 log2. The “Difference (log2), PP1 vs untreated” value in experiment [1] came to 0.01439 log2.

B8: SOAT1 (protein, UniProt P35610 1-550, looked up)
Sterol O-acyltransferase 1: MVGEEKMSLRNRLSKSRENPEEDEDQRNPAKESLETPSNGRIDIKQLIAKKIKLTAEAEELKPFFMKEVGSHFDDFVTNLIEKSASLDNGGCALTTFSVLEGEKNNHRAKDLRAPPEQGKIFIARRSLLDELLEVDHIRTIYHMFIALLILFILSTLVVDYIDEGRLVLEFSLLSYAFGKFPTVVWTWWIMFLSTFSVPYFLFQHWATGYSKSSHPLIRSLFHGFLFMIFQIGVLGFGPTYVVLAYTLPPASRFIIIFEQIRFVMKAHSFVRENVPRVLNSAKEKSSTVPIPTVNQYLYFLFAPTLIYRDSYPRNPTVRWGYVAMKFAQVFGCFFYVYYIFERLCAPLFRNIKQEPFSARVLVLCVFNSILPGVLILFLTFFAFLHCWLNAFAEMLRFGDRMFYKDWWNSTSYSNYYRTWNVVVHDWLYYYAYKDFLWFFSKRFKSAAMLAVFAVSAVVHEYALAVCLSFFYPVLFVLFMFFGMAFNFIVNDSRKKPIWNVLMWTSLFLGNGVLLCFYSQEWYARQHCPLKNPTFLDYVRPRSWTCRYVF
On to B8, for which the “Difference (log2), untreated vs GFP” value in the experiment with GFP-14-3-3β is 0.443 log2. Moreover, the “Difference (log2), PP1 vs untreated” value in experiment [1] is on record as 0.06363 log2.
